The target in assay [1] is human NOXO1 tandem SH3 domains (SH3AB) (human). Kind of assay: ITC; MicroCal VP-ITC, 18°C; 150 mM NaCl, 1 mM DTT, 50 mM HEPES pH 7.4; typically 20–40 µM protein in the cell, 200–300 µM ligand injected; single-site binding model; averaged over three to five experiments.
For assay [2] the target is unchanged. Kind of assay: ITC; data not shown; peptides of the human NOXO1 C-terminal tail titrated against human NOXO1 SH3 domains. Background: In ITC the heat of successive injections is recorded.

Our source for the Kd values is publication PMC2864300, “Regulation of NOXO1 Activity through Reversible Interactions with p22^phox and NOXA1” (PLoS ONE, 2010).

As for TAPPPTVPTRPS [shorter version of peptideA, which only contains the proline rich region], the dissociation constant Kd – broadly, the concentration at which binding is half-saturated – in assay [1] was found to be 50 µM.
On to TAPPPTVPTRPSPGAIQSRCCTVTRRALE [peptideA (amino acids 319–347 of human NOXO1)], for which the Kd in assay [2] stood at 50 µM.
